In article PMC1713233, “Implantation Serine Proteinases heterodimerize and are critical in hatching and implantation” (BMC Developmental Biology, 2006):

Target: T1, ISP1-ISP2 enzyme complex (Mus musculus, UniProt Q924N9+Q99MS4)
T1 construct: The native ISP enzyme complex was purified from mouse uterine tissue homogenates; from tissue; host or cells: uterus of pregnant CD1 mice (4.5-6.5 dpc)
Assay: Inhibition of proteolytic activity of ISP enzyme complex, chromogenic assay with BAPNA as substrate
Format: biochemical
Experimental: Many general serine proteinase inhibitors were tested in order to identify suitable ISP inhibitors when BAPNA was used as a substrate. These included Benzamidine hydrochloride, 4-(Amidino-Phenyl)-Methane-Sulfonyl Fluoride (APMSF), L-1 Chloro-3- [4-tosyl-amido]-7-amino-2-heptanone. HCl (TLCK), Trypsin Soybean Inhibitor (TSI), Bis (5-amidino-2-benzimadozolyl) methane (BABIM), Gabexate mesylate, Nafamostat, and the kunitz family serpins Uterine Plasmin-Trypsin Inhibitor (UPTI) and Secretary Leukocyte proteinase inhibitor (SLPI).
Only inhibitors specific for trypsin-like serine proteinases were able to inhibit the ISPs (Fig. 4B and Additional file 2. Table 1). IC50 (concentration of an inhibitor capable of inhibiting the enzyme activity by 50%) values were obtained by plotting inhibition data, which were extrapolated into Cheng and Prusoff's equation to derive the dissociation constant (Ki).
Chromogenic assays were carried out using the p-Nitroanilide conjugated peptidic substrates. The reaction conditions used were: 4 mM BAPNA (substrate), in 25 mM Tris.Cl (pH 8.0) and 10 mM EDTA reaction buffer, in a total reaction volume of 0.5 mL. The reactions were carried out at room temperature in a glass cuvette (1 cm path length), and scanned at wavelength maxima of 405 nm using a spectrophotometer. 1 Unit of enzyme is defined as enzyme activity sufficient for the breakdown of 1 μM of substrate/ml/min. The affinity of ISP complex with various substrates was characterized by measuring enzyme activity at differing substrate concentrations and plotting enzyme activity [V] vs. substrate concentration [S]. The Km was calculated using the Michaelis Menton equation (Km = [S] at 1/2 Vmax).
IC50 values were derived by plotting enzyme activity (V) vs. inhibitor concentration [I]. Dissociation constants (Ki) values for different inhibitors were determined by using the Cheng and Prusoff equation (Ki = IC50/1 + [S]/Km).

T1 sequence (Q924N9 27-274): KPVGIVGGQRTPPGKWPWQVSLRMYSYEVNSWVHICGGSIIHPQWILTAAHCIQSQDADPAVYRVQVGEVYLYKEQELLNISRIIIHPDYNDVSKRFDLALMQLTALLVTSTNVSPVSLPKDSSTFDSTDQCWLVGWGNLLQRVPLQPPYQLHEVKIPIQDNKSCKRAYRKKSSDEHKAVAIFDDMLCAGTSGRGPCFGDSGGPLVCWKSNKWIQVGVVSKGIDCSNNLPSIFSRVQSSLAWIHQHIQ
T1 sequence (Q99MS4 18-279): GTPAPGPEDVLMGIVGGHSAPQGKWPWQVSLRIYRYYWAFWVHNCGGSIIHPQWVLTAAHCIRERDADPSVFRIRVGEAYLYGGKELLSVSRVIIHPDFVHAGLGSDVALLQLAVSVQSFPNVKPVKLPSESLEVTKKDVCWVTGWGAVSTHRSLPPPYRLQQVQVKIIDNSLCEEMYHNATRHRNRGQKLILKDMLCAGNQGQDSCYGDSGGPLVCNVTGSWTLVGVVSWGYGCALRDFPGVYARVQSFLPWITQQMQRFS

B1: TSI: Trypsin Soybean Inhibitor, obtained from Sigma Aldrich (protein, UniProt P01070 25-205, looked up)
Trypsin inhibitor A: DFVLDNEGNPLENGGTYYILSDITAFGGIRAAPTGNERCPLTVVQSRNELDKGIGTIISSPYRIRFIAEGHPLSLKFDSFAVIMLCVGIPTEWSVVEDLPEGPAVKIGENKDAMDGWFRLERVSDDEFNNYKLVFCPQQAEDDKCGDIGISIDHDDGTRRLVVSKNKPLVVQFQKLDKESL
IC50 (4 mM BAPNA substrate, 25 mM Tris.Cl pH 8.0, room temperature, read-out: IC50%): 8 µM | Affinity for ISP enzyme (Fig. 4B, compared to Benzamidine): relatively high affinity | Influence on ISP activity (general trypsin inhibitors): inhibitory influence
